According to publication PMC6330322:

Experiments:
[1] = molecular target: NrnC from Agrobacterium tumefaciens (Agrobacterium tumefaciens str. C58); assay: SEC; Superdex 200, 25 mM Tris-HCl pH 8.0, 100 mM NaCl; calibrated with Ec_RND, Tle1, conalbumin and aldolase; self-association, octamer
[2] = molecular target: NrnC from Agrobacterium tumefaciens (Agrobacterium tumefaciens str. C58); assay: crystal structure; apo and Mn2+-soaked crystals, space group I422, two protomers in the asymmetric unit; octamer from crystal packing, interfaces analysed with PISA
[3] = molecular target: NrnC from Agrobacterium tumefaciens (Agrobacterium tumefaciens str. C58); assay: AUC; sedimentation velocity, 1 mg/mL At_NrnC in 25 mM Tris-HCl pH 8.0, 100 mM NaCl, without or with 5 mM MnCl2, 60,000 rpm, 20°C, Sedfit; self-association, octamer

Measured: stoichiometry N

NrnC from Agrobacterium tumefaciens (enzyme)
8: all assays above
